Data reported in patent publication US20130336893A1 (Sanofi, published 2013).
*1 amine or outer side, *2 acyl side, *3 side chain or, on linkers, in order; H or OH if unused. Where no end group is shown, it is not given here. Side-chain parts run from the residue outwards. [ ]: non-standard residue; d: D form. The star is where a group is joined. γGlu = O=C(O)[C@H](CCC(=O)[*:2])N[*:1]; Palmitoyl = CCCCCCCCCCCCCCCC(=O)*; Aib = CC(C)(N)C(=O)O

B1: SEQ ID NO: (61) (peptide)
peptide: H[dS]QGTFTSDLSKQMESRRAQDFIEWLKNGGPSSGAPPPSK([γGlu-Palmitoyl])-NH2
modifications: N-terminus assumed
SMILES: CCCCCCCCCCCCCCCC(=O)N[C@@H](CCC(=O)NCCCC[C@H](NC(=O)[C@H](CO)NC(=O)[C@@H]1CCCN1C(=O)[C@@H]1CCCN1C(=O)[C@@H]1CCCN1C(=O)[C@H](C)NC(=O)CNC(=O)[C@H](CO)NC(=O)[C@H](CO)NC(=O)[C@@H]1CCCN1C(=O)CNC(=O)CNC(=O)[C@H](CC(N)=O)NC(=O)[C@H](CCCCN)NC(=O)[C@H](CC(C)C)NC(=O)[C@H](Cc1c[nH]c2ccccc12)NC(=O)[C@H](CCC(=O)O)NC(=O)[C@@H](NC(=O)[C@H](Cc1ccccc1)NC(=O)[C@H](CC(=O)O)NC(=O)[C@H](CCC(N)=O)NC(=O)[C@H](C)NC(=O)[C@H](CCCNC(=N)N)NC(=O)[C@H](CCCNC(=N)N)NC(=O)[C@H](CO)NC(=O)[C@H](CCC(=O)O)NC(=O)[C@H](CCSC)NC(=O)[C@H](CCC(N)=O)NC(=O)[C@H](CCCCN)NC(=O)[C@H](CO)NC(=O)[C@H](CC(C)C)NC(=O)[C@H](CC(=O)O)NC(=O)[C@H](CO)NC(=O)[C@@H](NC(=O)[C@H](Cc1ccccc1)NC(=O)[C@@H](NC(=O)CNC(=O)[C@H](CCC(N)=O)NC(=O)[C@@H](CO)NC(=O)[C@@H](N)Cc1c[nH]cn1)[C@@H](C)O)[C@@H](C)O)[C@@H](C)CC)C(N)=O)C(=O)O
B2: SEQ ID NO: (62) (peptide)
peptide: H[Aib]QGTFTSDLSKQMESRRAQDFIEWLKNGGPSSGAPPPSK([γGlu-Palmitoyl])-NH2
modifications: N-terminus assumed
SMILES: CCCCCCCCCCCCCCCC(=O)N[C@@H](CCC(=O)NCCCC[C@H](NC(=O)[C@H](CO)NC(=O)[C@@H]1CCCN1C(=O)[C@@H]1CCCN1C(=O)[C@@H]1CCCN1C(=O)[C@H](C)NC(=O)CNC(=O)[C@H](CO)NC(=O)[C@H](CO)NC(=O)[C@@H]1CCCN1C(=O)CNC(=O)CNC(=O)[C@H](CC(N)=O)NC(=O)[C@H](CCCCN)NC(=O)[C@H](CC(C)C)NC(=O)[C@H](Cc1c[nH]c2ccccc12)NC(=O)[C@H](CCC(=O)O)NC(=O)[C@@H](NC(=O)[C@H](Cc1ccccc1)NC(=O)[C@H](CC(=O)O)NC(=O)[C@H](CCC(N)=O)NC(=O)[C@H](C)NC(=O)[C@H](CCCNC(=N)N)NC(=O)[C@H](CCCNC(=N)N)NC(=O)[C@H](CO)NC(=O)[C@H](CCC(=O)O)NC(=O)[C@H](CCSC)NC(=O)[C@H](CCC(N)=O)NC(=O)[C@H](CCCCN)NC(=O)[C@H](CO)NC(=O)[C@H](CC(C)C)NC(=O)[C@H](CC(=O)O)NC(=O)[C@H](CO)NC(=O)[C@@H](NC(=O)[C@H](Cc1ccccc1)NC(=O)[C@@H](NC(=O)CNC(=O)[C@H](CCC(N)=O)NC(=O)C(C)(C)NC(=O)[C@@H](N)Cc1c[nH]cn1)[C@@H](C)O)[C@@H](C)O)[C@@H](C)CC)C(N)=O)C(=O)O
B3: SEQ ID NO: (64) (peptide)
peptide: H[dS]QGTFTSDLSKQMESRRAQDFIEWLKNAGPSSGAPPPSK([γGlu-Palmitoyl])-NH2
modifications: N-terminus assumed
SMILES: CCCCCCCCCCCCCCCC(=O)N[C@@H](CCC(=O)NCCCC[C@H](NC(=O)[C@H](CO)NC(=O)[C@@H]1CCCN1C(=O)[C@@H]1CCCN1C(=O)[C@@H]1CCCN1C(=O)[C@H](C)NC(=O)CNC(=O)[C@H](CO)NC(=O)[C@H](CO)NC(=O)[C@@H]1CCCN1C(=O)CNC(=O)[C@H](C)NC(=O)[C@H](CC(N)=O)NC(=O)[C@H](CCCCN)NC(=O)[C@H](CC(C)C)NC(=O)[C@H](Cc1c[nH]c2ccccc12)NC(=O)[C@H](CCC(=O)O)NC(=O)[C@@H](NC(=O)[C@H](Cc1ccccc1)NC(=O)[C@H](CC(=O)O)NC(=O)[C@H](CCC(N)=O)NC(=O)[C@H](C)NC(=O)[C@H](CCCNC(=N)N)NC(=O)[C@H](CCCNC(=N)N)NC(=O)[C@H](CO)NC(=O)[C@H](CCC(=O)O)NC(=O)[C@H](CCSC)NC(=O)[C@H](CCC(N)=O)NC(=O)[C@H](CCCCN)NC(=O)[C@H](CO)NC(=O)[C@H](CC(C)C)NC(=O)[C@H](CC(=O)O)NC(=O)[C@H](CO)NC(=O)[C@@H](NC(=O)[C@H](Cc1ccccc1)NC(=O)[C@@H](NC(=O)CNC(=O)[C@H](CCC(N)=O)NC(=O)[C@@H](CO)NC(=O)[C@@H](N)Cc1c[nH]cn1)[C@@H](C)O)[C@@H](C)O)[C@@H](C)CC)C(N)=O)C(=O)O
B4: SEQ ID NO: (65) (peptide)
peptide: H[dS]QGTFTSDLSKQMDSRRAQDFIEWLKSGGPSSGAPPPSK([γGlu-Palmitoyl])-NH2
modifications: N-terminus assumed
SMILES: CCCCCCCCCCCCCCCC(=O)N[C@@H](CCC(=O)NCCCC[C@H](NC(=O)[C@H](CO)NC(=O)[C@@H]1CCCN1C(=O)[C@@H]1CCCN1C(=O)[C@@H]1CCCN1C(=O)[C@H](C)NC(=O)CNC(=O)[C@H](CO)NC(=O)[C@H](CO)NC(=O)[C@@H]1CCCN1C(=O)CNC(=O)CNC(=O)[C@H](CO)NC(=O)[C@H](CCCCN)NC(=O)[C@H](CC(C)C)NC(=O)[C@H](Cc1c[nH]c2ccccc12)NC(=O)[C@H](CCC(=O)O)NC(=O)[C@@H](NC(=O)[C@H](Cc1ccccc1)NC(=O)[C@H](CC(=O)O)NC(=O)[C@H](CCC(N)=O)NC(=O)[C@H](C)NC(=O)[C@H](CCCNC(=N)N)NC(=O)[C@H](CCCNC(=N)N)NC(=O)[C@H](CO)NC(=O)[C@H](CC(=O)O)NC(=O)[C@H](CCSC)NC(=O)[C@H](CCC(N)=O)NC(=O)[C@H](CCCCN)NC(=O)[C@H](CO)NC(=O)[C@H](CC(C)C)NC(=O)[C@H](CC(=O)O)NC(=O)[C@H](CO)NC(=O)[C@@H](NC(=O)[C@H](Cc1ccccc1)NC(=O)[C@@H](NC(=O)CNC(=O)[C@H](CCC(N)=O)NC(=O)[C@@H](CO)NC(=O)[C@@H](N)Cc1c[nH]cn1)[C@@H](C)O)[C@@H](C)O)[C@@H](C)CC)C(N)=O)C(=O)O
B5: SEQ ID NO: (69) (peptide)
peptide: H[dS]QGTFTSDLSKQMDKRRAQDFIEWLKNGGPSSGAPPPSK([γGlu-Palmitoyl])-NH2
modifications: N-terminus assumed
SMILES: CCCCCCCCCCCCCCCC(=O)N[C@@H](CCC(=O)NCCCC[C@H](NC(=O)[C@H](CO)NC(=O)[C@@H]1CCCN1C(=O)[C@@H]1CCCN1C(=O)[C@@H]1CCCN1C(=O)[C@H](C)NC(=O)CNC(=O)[C@H](CO)NC(=O)[C@H](CO)NC(=O)[C@@H]1CCCN1C(=O)CNC(=O)CNC(=O)[C@H](CC(N)=O)NC(=O)[C@H](CCCCN)NC(=O)[C@H](CC(C)C)NC(=O)[C@H](Cc1c[nH]c2ccccc12)NC(=O)[C@H](CCC(=O)O)NC(=O)[C@@H](NC(=O)[C@H](Cc1ccccc1)NC(=O)[C@H](CC(=O)O)NC(=O)[C@H](CCC(N)=O)NC(=O)[C@H](C)NC(=O)[C@H](CCCNC(=N)N)NC(=O)[C@H](CCCNC(=N)N)NC(=O)[C@H](CCCCN)NC(=O)[C@H](CC(=O)O)NC(=O)[C@H](CCSC)NC(=O)[C@H](CCC(N)=O)NC(=O)[C@H](CCCCN)NC(=O)[C@H](CO)NC(=O)[C@H](CC(C)C)NC(=O)[C@H](CC(=O)O)NC(=O)[C@H](CO)NC(=O)[C@@H](NC(=O)[C@H](Cc1ccccc1)NC(=O)[C@@H](NC(=O)CNC(=O)[C@H](CCC(N)=O)NC(=O)[C@@H](CO)NC(=O)[C@@H](N)Cc1c[nH]cn1)[C@@H](C)O)[C@@H](C)O)[C@@H](C)CC)C(N)=O)C(=O)O
B6: SEQ ID NO: (70) (peptide)
peptide: H[dS]QGTFTSDLSKQMDERRAKDFIEWLKNGGPSSGAPPPSK([γGlu-Palmitoyl])-NH2
modifications: N-terminus assumed
SMILES: CCCCCCCCCCCCCCCC(=O)N[C@@H](CCC(=O)NCCCC[C@H](NC(=O)[C@H](CO)NC(=O)[C@@H]1CCCN1C(=O)[C@@H]1CCCN1C(=O)[C@@H]1CCCN1C(=O)[C@H](C)NC(=O)CNC(=O)[C@H](CO)NC(=O)[C@H](CO)NC(=O)[C@@H]1CCCN1C(=O)CNC(=O)CNC(=O)[C@H](CC(N)=O)NC(=O)[C@H](CCCCN)NC(=O)[C@H](CC(C)C)NC(=O)[C@H](Cc1c[nH]c2ccccc12)NC(=O)[C@H](CCC(=O)O)NC(=O)[C@@H](NC(=O)[C@H](Cc1ccccc1)NC(=O)[C@H](CC(=O)O)NC(=O)[C@H](CCCCN)NC(=O)[C@H](C)NC(=O)[C@H](CCCNC(=N)N)NC(=O)[C@H](CCCNC(=N)N)NC(=O)[C@H](CCC(=O)O)NC(=O)[C@H](CC(=O)O)NC(=O)[C@H](CCSC)NC(=O)[C@H](CCC(N)=O)NC(=O)[C@H](CCCCN)NC(=O)[C@H](CO)NC(=O)[C@H](CC(C)C)NC(=O)[C@H](CC(=O)O)NC(=O)[C@H](CO)NC(=O)[C@@H](NC(=O)[C@H](Cc1ccccc1)NC(=O)[C@@H](NC(=O)CNC(=O)[C@H](CCC(N)=O)NC(=O)[C@@H](CO)NC(=O)[C@@H](N)Cc1c[nH]cn1)[C@@H](C)O)[C@@H](C)O)[C@@H](C)CC)C(N)=O)C(=O)O

target: human glucagon receptor (human, UniProt P47871 26-477); assay: cell-based or functional assay
Sequence (P47871 26-477): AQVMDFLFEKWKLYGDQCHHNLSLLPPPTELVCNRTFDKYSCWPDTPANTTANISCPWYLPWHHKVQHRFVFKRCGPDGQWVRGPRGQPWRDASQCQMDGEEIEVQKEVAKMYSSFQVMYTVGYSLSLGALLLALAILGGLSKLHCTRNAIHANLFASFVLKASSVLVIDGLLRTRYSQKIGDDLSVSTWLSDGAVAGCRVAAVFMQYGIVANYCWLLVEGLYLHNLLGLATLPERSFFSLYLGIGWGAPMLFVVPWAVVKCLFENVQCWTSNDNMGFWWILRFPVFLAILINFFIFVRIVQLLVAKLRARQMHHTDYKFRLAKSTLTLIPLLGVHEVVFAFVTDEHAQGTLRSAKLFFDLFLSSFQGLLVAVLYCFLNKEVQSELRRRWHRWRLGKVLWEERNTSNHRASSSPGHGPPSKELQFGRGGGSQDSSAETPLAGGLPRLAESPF

Compared with B1, B2 is 4.3-fold higher in “EC50 hGlucagonR (cAMP formation)” value: 0.0304 nM for the first, 0.13 nM for the second.

First: B3
Second: B4
The “EC50 hGlucagonR (cAMP formation)” value of the first is 12-fold higher: 0.067 nM for the first, 0.0057 nM for the second.

First: B5
Second: B6
The “EC50 hGlucagonR (cAMP formation)” value of the first is 2.9-fold lower: 0.0059 nM for the first, 0.0172 nM for the second.

H[dS]QGTFTSDLSKQMESRRAQDFIEWLK[Aib]GGPSSGAPPPSK([γGlu-Palmitoyl])-NH2 [SEQ ID NO: (73)] was tested, and the “EC50 hGlucagonR (cAMP formation)” value was 0.0212 nM.

target: human GLP-1 receptor (human, UniProt P43220 24-463); assay: cell-based or functional assay

Going from B1 to B2, the “EC50 hGLP-1R (cAMP formation)” value rises from 0.0042 nM to 0.0063 nM (1.5-fold).

B3 and B4 are within 1.5-fold of each other in “EC50 hGLP-1R (cAMP formation)” value: 0.0219 nM for the first, 0.015 nM for the second.

First: B5
Second: B6
The “EC50 hGLP-1R (cAMP formation)” value of the first is 1.5-fold higher: 0.0076 nM for the first, 0.005 nM for the second.

With H[dS]QGTFTSDLSKQMESRRAQDFIEWLK[Aib]GGPSSGAPPPSK([γGlu-Palmitoyl])-NH2 [SEQ ID NO: (73)] the “EC50 hGLP-1R (cAMP formation)” value was 0.0044 nM.
